# Laboratory results from patent publication US20030176665A1.
# Where two headings read alike, the source gives them in different places.
# B1: trigger factor from Thermatoga maritima (protein)
# chain: MEVKELERDKNRVVLEYVFGAEEIAQAEDKAVRYLNQRVEIPGFRKGRIPKNVLKMKLGEEFQEYTLDFLMDLIPDTLKDRKLILSPIVTERELKDVTARVVVEVHEEPEVRIGDISKIEVEKVDEEKVLEKYVERRIEDLRESHALLEPKEGPAEAGDLVRVNMEVYNEEGKKLTSREYEYVISEDEDRPFVKDLVGKKKGDVVEIEREYEGKKYTYKLEVEEVYKRTLPEIGDELAKSVNNEFETLEQLKESLKKEGKEIYDVEMKESMREQLLEKLPEIVEIEISDRTLEILVNEAINRLKREGRYEQIVSSYESEEKFREELKERILDDIKRDRVIEVLAQEKGISVNDEELEKEAEELAPFWGISPDRAKSLVKARQDLREELRWAILKRKVLDLLLQEVKVKVVEPKGEGDDSEGKEDN
# B2: FkpA from E. coli (mature FkpA) (protein)
# chain: AEAAKPATAADSKAAFKNDDQKSAYALGASLGRYMENSLKEQEKLGIKLDKDQLIAGVQDAFADKSKLSDQEIEQTLQAFEARVKSSAQAKMEKDAADNEAKGKEYREKFAKEKGVKTSSTGLVYQVVEAGKGEAPKDSDTVVVNYKGTLIDGKEFDNSYTRGEPLSFRLDGVIPGWTEGLKNIKKGGKIKLVIPPELAYGKAGVPGIPPNSTLVFDVELLDVKPAPKADAKPEADAKAADSAKK
# Key:
# gp41 (535-681)-His6 [1] = system: gp41 (535-681)-His6
# gp41 (535-681)-His6 [2] = molecular target: gp41 (535-681)-His6; remark: listed apart in the source
molecule,measurement,setting,value
C-terminally truncated SlyD from E. coli,aggregation of gp41 after shift to neutral pH (UV spectra),gp41 (535-681)-His6 [1],Comparable data have been obtained with ... a C-terminally truncated SlyD from E. coli
B1,aggregation of gp41 after shift to neutral pH (UV spectra),gp41 (535-681)-His6 [2],Comparable data have been obtained with trigger factor from Thermatoga maritima
B2,aggregation of gp41 after shift from about pH 3.5 to pH 7.4 (UV spectra after 1 and 10 minutes; 1 µM gp41 with 2 µM or 4 µM FkpA),gp41 (535-681)-His6 [2],FkpA substantially reduces the aggregation of gp41 in a dose-dependent fashion
same,suppression of aggregation (stray light in UV spectra) by a two-fold and a four-fold molar excess of the chaperone,gp41 (535-681)-His6 [2],there is compelling spectroscopic evidence that FkpA efficiently solubilizes the gp41 ectodomain in a dose-dependent fashion
